Source: US20120058906A1 (published 2012)

Key:
[1] = biological target: T1, rHuman ErbB2/Fc Chimera, CF (R&D Systems Cat#1129-ER) (human, UniProt P04626 23-652); test: MSD ECL multi-spot assay, antigen spotted on plate, Fab 0.93 uM; blank spot 859
T1 construct: Bought protein; also called HER2/neu; human epidermal growth factor 2 receptor; Fc part of the bought chimera not given

[2] = biological target: T2, rHuman Notch-1/Fc Chimera, CF (R&D Systems Cat#3647-TK) (human, UniProt P46531 19-526); test: as above
T2 construct: Bought protein; Fc part of the bought chimera not given

[3] = biological target: T3, rHuman CD44/Fc Chimera, CF (R&D Systems Cat#3660-CD) (human, UniProt P16070 21-220); test: as above
T3 construct: Bought protein; Fc part of the bought chimera not given

[4] = biological target: T4, rHuman IGF-1 sR (IGF-1 sR), CF (R&D Systems Cat#391-GR) (human, UniProt P08069 31-932); test: as above
T4 construct: Bought soluble receptor; also called insulin-like growth factor-1 soluble receptor; IGF-R1

[5] = biological target: T5, rHuman P-Cadherin/Fc Chimera, CF (R&D Systems Cat#861-PC) (human, UniProt P22223 108-654); test: as above
T5 construct: Bought protein; also called CDH3; Fc part of the bought chimera not given

[6] = biological target: T6, rHuman Erythropoietin R/Fc Chimera, CF (R&D Systems Cat#963-ER) (human, UniProt P19235 25-250); test: as above
T6 construct: Bought protein; also called EPOR; EPO R/Fc; Fc part of the bought chimera not given
T6 sequence: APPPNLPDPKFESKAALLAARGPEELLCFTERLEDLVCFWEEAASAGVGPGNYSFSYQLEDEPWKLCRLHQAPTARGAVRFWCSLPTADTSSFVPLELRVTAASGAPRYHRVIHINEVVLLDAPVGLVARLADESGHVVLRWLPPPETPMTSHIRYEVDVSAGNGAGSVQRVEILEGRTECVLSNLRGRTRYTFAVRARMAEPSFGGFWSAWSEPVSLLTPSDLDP

[7] = biological target: T7, Recombinant Human DLL4 (R&D Systems Cat#1506-D4/CF) (human, UniProt Q9NR61 27-524); test: as above
T7 construct: Bought protein; also called delta-like protein 4; rHuman DLL4

[8] = biological target: T8, rHuman HGF R/c-MET/Fc Chimera, CF (R&D Systems Cat#358-MT/CF) (human, UniProt P08581 25-932); test: ECL (MSD multi-spot) titration, Fab at 36 nM; blank spot 413
T8 construct: Bought protein; also called HGF R/Fc; hepatocyte growth factor receptor; not shown: Fc of the bought chimera

[9] = biological target: T9, rHuman CD44/Fc Chimera, CF (R&D Systems Cat#3660-CD) (human, UniProt P16070 21-220); test: as above
T9 construct: Bought protein; not shown: Fc of the bought chimera

[10] = biological target: T10, rHuman IGF-1 sR, CF (R&D Systems Cat#391-GR) (human, UniProt P08069 31-932); test: as above
T10 construct: Bought soluble receptor; also called insulin-like growth factor-1 soluble receptor; IGF-R1

[11] = biological target: T11, rHuman P-Cadherin/Fc Chimera, CF (R&D Systems Cat#861-PC) (human, UniProt P22223 108-654); test: as above
T11 construct: Bought protein; not shown: Fc of the bought chimera

[12] = biological target: T12, rHuman Erythropoietin R/Fc Chimera, CF (R&D Systems Cat#963-ER) (human, UniProt P19235 25-250); test: as above
T12 construct: Bought protein; also called EPO R/Fc; EPOR; not shown: Fc of the bought chimera
T12 sequence: T6 sequence

[13] = biological target: T13, rHuman ErbB2/Fc Chimera, CF (R&D Systems Cat#1129-ER) (human, UniProt P04626 23-652); test: as above
T13 construct: Bought protein; also called HER2/neu; human epidermal growth factor 2 receptor; not shown: Fc of the bought chimera

[14] = biological target: T8, rHuman HGF R/c-MET/Fc Chimera, CF (R&D …); test: ECL (MSD multi-spot) titration, Fab at 360 nM; blank spot 462
[15] = biological target: T9, rHuman CD44/Fc Chimera, CF (R&D Systems …); test: as above
[16] = biological target: T10, rHuman IGF-1 sR, CF (R&D Systems …); test: as above
[17] = biological target: T11, rHuman P-Cadherin/Fc Chimera, CF (R&D …); test: as above
[18] = biological target: T12, rHuman Erythropoietin R/Fc Chimera, CF …; test: as above
[19] = biological target: T13, rHuman ErbB2/Fc Chimera, CF (R&D …); test: as above
[20] = biological target: T14, rHuman EGF R/Fc Chimera, CF (R&D Systems Cat#344-ER) (human, UniProt P00533 25-645); test: ECL (MSD multi-spot) titration, Fab at 0.25 uM; blank spot 6344
T14 construct: Bought protein; also called epidermal growth factor receptor; not shown: Fc of the bought chimera

[21] = biological target: T10, rHuman IGF-1 sR, CF (R&D Systems …); test: as above
[22] = biological target: T11, rHuman P-Cadherin/Fc Chimera, CF (R&D …); test: as above
[23] = biological target: T12, rHuman Erythropoietin R/Fc Chimera, CF …; test: as above
[24] = biological target: T15, Recombinant Human DLL4 (R&D Systems Cat#1506-D4/CF) (human, UniProt Q9NR61 27-524); test: as above
T15 construct: Bought protein; also called delta-like protein 4

[25] = biological target: T14, rHuman EGF R/Fc Chimera, CF (R&D …); test: ECL (MSD multi-spot) titration, Fab at 0.00391 uM; blank spot 576
[26] = biological target: T10, rHuman IGF-1 sR, CF (R&D Systems …); test: as above
[27] = biological target: T11, rHuman P-Cadherin/Fc Chimera, CF (R&D …); test: as above
[28] = biological target: T12, rHuman Erythropoietin R/Fc Chimera, CF …; test: as above
[29] = biological target: T15, Recombinant Human DLL4 (R&D Systems …); test: as above
[30] = biological target: T14, rHuman EGF R/Fc Chimera, CF (R&D …); test: ECL (MSD multi-spot) titration, Fab at 0.01563 uM; blank spot 906
[31] = biological target: T10, rHuman IGF-1 sR, CF (R&D Systems …); test: as above
[32] = biological target: T11, rHuman P-Cadherin/Fc Chimera, CF (R&D …); test: as above
[33] = biological target: T12, rHuman Erythropoietin R/Fc Chimera, CF …; test: as above
[34] = biological target: T15, Recombinant Human DLL4 (R&D Systems …); test: as above
[35] = biological target: T14, rHuman EGF R/Fc Chimera, CF (R&D …); test: ECL (MSD multi-spot) titration, Fab at 0.0625 uM; blank spot 1738
[36] = biological target: T10, rHuman IGF-1 sR, CF (R&D Systems …); test: as above
[37] = biological target: T11, rHuman P-Cadherin/Fc Chimera, CF (R&D …); test: as above
[38] = biological target: T12, rHuman Erythropoietin R/Fc Chimera, CF …; test: as above
[39] = biological target: T15, Recombinant Human DLL4 (R&D Systems …); test: as above
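Also: blank spot per well as comparator with Hit at signal to blank ratio of 4 or more.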

B1: Fab VH1-46_IGHD6-13*01_IGHJ4*01 & O1_IGKJ1*01 (Fab, V domains shown)
VH: QVQLVQSGAEVKKPGASVKVSCKASGYTFTSYYMHWVRQAPGQGLEWMGIINPSGGSTSYAQKFQGRVTMTRDTSTSTVYMELSSLRSEDTAVYYCAREGYSSSWYDYFDYWGQGTLVTVSS
VL: DIVMTQTPLSLPVTPGEPASISCRSSQSLLDSDDGNTYLDWYLQKPGQSPQLLIYTLSYRASGVPDRFSGSGSGTDFTLKISRVEAEDVGVYYCMQRIEFPSWTFGQGTKVEIK
notes: Fab from E. coli; VH joined to the CH1 (Flag and His tags) of Plasmid A, VL to the kappa CL of Plasmid C
In the case of B1, the ECL signal [1] is reported as 1610, the ECL signal [2] is reported as 1920 and the ECL signal [3] is reported as 1450. For the same binder, the ECL signal [4] was 1790, the ECL signal [5] was 2420 and the ECL signal [6] was 4240. For the same binder, the ECL signal [7] was 9630.

B2: Fab VH4-28_IGHD7-27*01_IGHJ1*01 & L2_IGKJ1*01 (Fab, V domains shown)
VH: QVQLQESGPGLVKPSDTLSLTCAVSGYSISSSNWWGWIRQPPGKGLEWIGYIYYSGSTYYNPSLKSRVTMSVDTSKNQFSLKLSSVTAVDTAVYYCARTNWGAEYFQHWGQGTLVTVSS
VL: not shown
notes: also called Fab No. 1
B2 was tested, and the ECL signal [8] was 613, the ECL signal [9] was 679 and the ECL signal [10] was 486. It also gave an ECL signal [11] of 693, an ECL signal [12] of 2980 and an ECL signal [13] of 600. For the same binder, the ECL signal [14] was 581, the ECL signal [15] was 740 and the ECL signal [16] was 535. The ECL signal [17] was 636, the ECL signal [18] was 4720 and the ECL signal [19] was 647.

B3: Fab VH1-46_IGHD2-15*01_IGHJ2*01 & L2_IGKJ1*01 (Fab, V domains shown)
VH: QVQLVQSGAEVKKPGASVKVSCKASGYTFTSYYMHWVRQAPGQGLEWMGIINPSGGSTSYAQKFQGRVTMTRDTSTSTVYMELSSLRSEDTAVYYCAREGYCSGGSCYSYWYFDLWGRGTLVTVSS
VL: not shown
notes: also called Fab No. 6
B3 was tested, and the ECL signal [20] was 117000, the ECL signal [21] was 11000 and the ECL signal [22] was 25500. For the same binder, the ECL signal [23] was 49200, the ECL signal [24] was 27700 and the ECL signal [25] was 35900. For the same binder, the ECL signal [26] was 822, the ECL signal [27] was 1960 and the ECL signal [28] was 5020. For the same binder, the ECL signal [29] was 1550, the ECL signal [30] was 70800 and the ECL signal [31] was 1740. For the same binder, the ECL signal [32] was 4940, the ECL signal [33] was 11300 and the ECL signal [34] was 4020. It also gave an ECL signal [35] of 94800, an ECL signal [36] of 3150 and an ECL signal [37] of 7740. The ECL signal [38] was 21100 and the ECL signal [39] was 8050.
